Target: FAM-labeled recombinant full-length SARS-CoV-2 Nsp1 (SARS-CoV-2-Nsp1_C-51-V) (SARS-CoV-2) (UniProt P0DTD1)
Assay: fluorescence polarisation

In the case of “40S ribosomal subunit purified from rabbit reticulocyte lysate (from UniProt G1TNM3 1-243; G1SWM1 1-292) (complex)”, the Kd is reported as 0.03 µM.
